Patent US6365356B1, “Receptors that regulate cell signaling relating to chemokines” (Cornell Research Foundation, Inc., priority 1999, dated 2002)

Assays:
Format in all cases: cell-based
CXCR4 = molecular target: T1, CXCR4 (Homo sapiens, UniProt P61073); assay: Luciferase reporter gene assay (protein kinase C-responsive promoter), COS-1 cells expressing CXCR4 but not DARC; details: COS-1 cells expressing CXCR4 alone; luciferase gene controlled by protein kinase C-responsive promoter
T1 construct: expressed in transfected cells; host or cells: COS-1 cells, transient DEAE-dextran transfection with pcDNA3.1 encoding CXCR4
Protocol: (§1) A second group of COS-1 cells were made to express DARC, but not CXCR4. A third group of COS-1 cells were made to express CXCR4, but not DARC. Signaling due to stromal cell derived factor 1 (SDF-1) and GRO-α was measured in a reporter gene assay using a luciferase gene controlled by a protein kinase C-responsive promoter.
(§2) Cell Culture and Transfection. COS-1 cells are maintained in Dulbecco's modified eagle's medium with 5% fetal calf serum and are seeded 1 day prior to transfection at 750,000 cells/100 mm dish. Cells are transfected with pcDNA3.1 (Invitrogen) encoding DARC (5 μg DNA/ml) or with pcDNA3.1 encoding CXCR4 (5 μg DNA/ml), or both using the DEAE-dextran method and maintained in Dulbecco's modified Eagle's medium with 10% fetal calf serum for 1 day at which time cells are harvested and seeded into 12-well plates at 100,000 cells/well or 24-well plates at 50,000 cells/well in Dulbecco's modified Eagle's medium with 5% fetal calf serum. Other cell lines, such as HEK-293 or CHO cells, can be stably transfected with DARC or CXCR4, or both.
(§3) Reporter Gene Assays. […] Agonists or agonists plus antagonists are added for four hours and the reporter activity measured. […]

DARC and CXCR4 = molecular target: T2, DARC and CXCR4 (Homo sapiens, UniProt Q16570); assay: Luciferase reporter gene assay (protein kinase C-responsive promoter), COS-1 cells co-expressing DARC and CXCR4; details: single chemokine
T2 construct: expressed in transfected cells; host or cells: COS-1 cells co-transfected (DEAE-dextran) with pcDNA3.1 encoding DARC and pcDNA3.1 encoding CXCR4
T2 sequence (Q16570 1-336): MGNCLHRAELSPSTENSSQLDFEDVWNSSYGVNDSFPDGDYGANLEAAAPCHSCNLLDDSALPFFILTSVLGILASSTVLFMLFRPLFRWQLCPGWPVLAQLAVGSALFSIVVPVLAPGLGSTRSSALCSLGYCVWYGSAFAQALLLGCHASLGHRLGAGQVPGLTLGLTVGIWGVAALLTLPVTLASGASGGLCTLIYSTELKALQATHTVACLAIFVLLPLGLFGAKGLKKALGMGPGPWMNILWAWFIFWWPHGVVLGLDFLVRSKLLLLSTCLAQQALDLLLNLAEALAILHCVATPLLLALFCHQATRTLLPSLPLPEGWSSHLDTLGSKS
Protocol: as §1, §2, §3

DARC = assay: Luciferase reporter gene assay (protein kinase C-responsive promoter), COS-1 cells expressing DARC but not CXCR4; details: COS-1 cells expressing DARC alone; luciferase gene controlled by protein kinase C-responsive promoter
Protocol: as §1, §2, §3

T1 sequence (P61073 whole entry): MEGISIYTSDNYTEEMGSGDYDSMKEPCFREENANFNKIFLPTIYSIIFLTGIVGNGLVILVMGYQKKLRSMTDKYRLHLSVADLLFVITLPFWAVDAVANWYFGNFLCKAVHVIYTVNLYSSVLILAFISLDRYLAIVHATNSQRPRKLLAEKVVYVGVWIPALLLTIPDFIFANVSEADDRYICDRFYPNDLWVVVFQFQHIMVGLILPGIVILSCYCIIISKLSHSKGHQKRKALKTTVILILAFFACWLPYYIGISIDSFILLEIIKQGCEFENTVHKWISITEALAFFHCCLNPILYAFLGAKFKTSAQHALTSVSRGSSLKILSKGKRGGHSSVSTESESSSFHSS

growth-related protein-α [GRO-α]
Signaling in reporter gene assay via CXCR4 (CXCR4): did not signal
Signaling (gene transcription) in reporter gene assay (DARC and CXCR4): increase gene transcription
Signaling in reporter gene assay via DARC (DARC): did not signal

stromal cell derived factor 1 [SDF-1]
Signaling in reporter gene assay via CXCR4 (CXCR4): signals weakly
Signaling in reporter gene assay via DARC (DARC): does not signal
